± gives the uncertainty stated by the source.
Experiment: self-splicing fitness, log relative to wild type (ln ratio); higher = more splicing; Tetrahymena group I intron in knt gene, E. coli kanamycin selection, DiMSum; sequences stand for … in CUCUCU…GGAGGGAAAAGUUAUCAGGCAUGCACCUGGUAGCUAGUCUUUAAACCAAUAGAUUGCAUCGGUUUAAAAGGCAAGACCGUCAAAUUGCGGGAAAGGGGUCAACAGCCGUUCAGUACCAAGUCUCAGGGGAAACUUUGAGAUGGCCUUGCAAAGGGUAUGGUAAUAAGCUGACGGACAUGGUCCUAACCACGCAGCCAAGUCCUAAGUCAACAGAUCUUCUGUUGAUAUGGAUGCAGUUCACAGACUAAAUGUCGGUCGGGGAAGAUGUAUUCUUCUCAUAAGAUAUAGUCGGACCUCUCCUUAAUGGGAGCUAGCGGAUGAAGUGAUGCAACACUGGAGCCGCUGGGAACUAAUUUGUAUGCGAAAGUAUAUUGAUUAGUUUUGGAGUACUCGUGGUCG
Procedure, shortened: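 DiMSum derived fitness as the error-weighted combination of fold changes across replicates, kanamycin versus no kanamycin, normalised to wild type. E. coli BL21(DE3) held the library, which randomised all eight P1ex-region intron nucleotides within the knt kanamycin-resistance gene on pET-22b(+). Six replicate transformations grew overnight at 37°C or 30°C on LB agar with or without 25 μg/mL kanamycin, also containing 100 μg/mL carbenicillin, 50 μM IPTG and 0.2% rhamnose, and pooled colonies were amplicon-sequenced on an Illumina HiSeq 2500.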

Row | Sequence | self-splicing fitness (ln) (30 °C) | self-splicing fitness (ln) (37 °C)
1 | GAUUAGCAAUAUUACGUUUC | -3.69 ± 0.28 | -1.89 ± 0.18
2 | GCAAAGCAAUAUUACGAAGG | -2 ± 0.14 | -0.499 ± 0.17
3 | GCAAAGCAAUAUUACGACCG | -0.859 ± 0.14 | -1.26 ± 0.25
4 | GCAAAGCAAUAUUACGACUA | -0.955 ± 0.05 | -0.475 ± 0.055
5 | GCAAAGCAAUAUUACGAGAU | -3.64 ± 0.16 | -2.19 ± 0.12
6 | GCAAAGCAAUAUUACGAGGU | -3.56 ± 0.25 | -3.24 ± 0.33
7 | GCAAAGCAAUAUUACGAGUA | -2.1 ± 0.087 | -1.15 ± 0.086
8 | GCAAAGCAAUAUUACGAUUC | -1.26 ± 0.082 | -0.245 ± 0.1
9 | GCAAAGCAAUAUUACGCAGC | -0.0889 ± 0.15 | -2.46 ± 0.39
10 | GCAAAGCAAUAUUACGCAUG | -3.61 ± 0.22 | -2.97 ± 0.27
11 | GCAAAGCAAUAUUACGCGAA | -1.55 ± 0.14 | -0.599 ± 0.17
12 | GCAAAGCAAUAUUACGCGAC | -3.4 ± 0.13 | -1.54 ± 0.16
13 | GCAAAGCAAUAUUACGGAUA | -2.49 ± 0.13 | -1.6 ± 0.1
14 | GCAAAGCAAUAUUACGGGAG | -2.71 ± 0.11 | -2.08 ± 0.13
15 | GCAAAGCAAUAUUACGGUAU | -1.32 ± 0.072 | -0.489 ± 0.096
16 | GCAAAGCAAUAUUACGGUCC | -1.75 ± 0.14 | -0.8 ± 0.15
17 | GCAAAGCAAUAUUACGUAAC | -1.67 ± 0.12 | -0.338 ± 0.15
18 | GCAAAGCAAUAUUACGUAGU | -2.09 ± 0.11 | -1.14 ± 0.15
19 | GCAAAGCAAUAUUACGUCCC | -0.828 ± 0.14 | -0.697 ± 0.098
20 | GCAAAGCAAUAUUACGUCCG | -1.98 ± 0.25 | -1.74 ± 0.31
21 | GCAAAGCAAUAUUACGUCUU | -1.14 ± 0.074 | -1.11 ± 0.075
22 | GCAAAGCAAUAUUACGUGCA | -1.62 ± 0.099 | -0.826 ± 0.1
23 | GCAAAGCAAUAUUACGUGUC | -4.47 ± 0.18 | -1.84 ± 0.12
24 | GCAAAGCAAUAUUACGUUGC | -3.51 ± 0.21 | -1.88 ± 0.21
25 | GCACAGCAAUAUUACGAAAG | -3.79 ± 0.15 | -1.91 ± 0.11

Row | Sequence | self-splicing fitness (ln) (30 °C) | self-splicing fitness (ln) (37 °C)
26 | GCACAGCAAUAUUACGACUA | -1.17 ± 0.11 | -0.702 ± 0.085
27 | GCACAGCAAUAUUACGACUG | -1.14 ± 0.094 | -0.12 ± 0.093
28 | GCACAGCAAUAUUACGAGCG | -1.16 ± 0.066 | -0.171 ± 0.077
29 | GCACAGCAAUAUUACGAUGC | -3.17 ± 0.2 | -1.88 ± 0.17
30 | GCACAGCAAUAUUACGAUUC | -0.739 ± 0.11 | 1.44 ± 0.15
31 | GCACAGCAAUAUUACGCAUU | -0.442 ± 0.064 | 0.276 ± 0.078
32 | GCACAGCAAUAUUACGCGAU | -2.12 ± 0.16 | -1.55 ± 0.15
33 | GCACAGCAAUAUUACGCGCC | -2.56 ± 0.38 | –
34 | GCACAGCAAUAUUACGCGGC | -4.04 ± 0.43 | -1.84 ± 0.26
35 | GCACAGCAAUAUUACGCGGG | -2.13 ± 0.069 | -1.39 ± 0.081
36 | GCACAGCAAUAUUACGCGUU | -1.29 ± 0.053 | -0.545 ± 0.057
37 | GCACAGCAAUAUUACGCUAG | -1.9 ± 0.082 | -1.18 ± 0.078
38 | GCACAGCAAUAUUACGCUCC | -1.27 ± 0.16 | 0.155 ± 0.17
39 | GCACAGCAAUAUUACGGAAU | -1.08 ± 0.076 | -0.95 ± 0.095
40 | GCACAGCAAUAUUACGGACA | -1.02 ± 0.1 | -0.584 ± 0.11
41 | GCACAGCAAUAUUACGGAGA | -2.85 ± 0.12 | -2.16 ± 0.13
42 | GCACAGCAAUAUUACGGCGC | -1.54 ± 0.1 | -0.777 ± 0.12
43 | GCACAGCAAUAUUACGGUAC | -1.17 ± 0.096 | -0.285 ± 0.1
44 | GCACAGCAAUAUUACGGUCC | -0.798 ± 0.062 | 0.0593 ± 0.082
45 | GCACAGCAAUAUUACGGUGC | -3.09 ± 0.2 | -2.61 ± 0.23
46 | GCACAGCAAUAUUACGUAUU | -1 ± 0.047 | -0.335 ± 0.057
47 | GCACAGCAAUAUUACGUCCA | -0.954 ± 0.12 | -0.96 ± 0.11
48 | GCACAGCAAUAUUACGUCUA | -0.8 ± 0.06 | -0.367 ± 0.063
49 | GCACAGCAAUAUUACGUCUG | -2.53 ± 0.1 | -1.27 ± 0.11
50 | GCACAGCAAUAUUACGUUCU | -0.579 ± 0.054 | -0.524 ± 0.068

Row | Sequence | self-splicing fitness (ln) (30 °C) | self-splicing fitness (ln) (37 °C)
51 | GCACAGCAAUAUUACGUUUG | -1.62 ± 0.066 | -1.08 ± 0.089
52 | GCAGAGCAAUAUUACGACCU | – | -1.59 ± 0.42
53 | GCAGAGCAAUAUUACGCACG | -4.51 ± 0.42 | -2.05 ± 0.23
54 | GCAGAGCAAUAUUACGCAGC | -2.42 ± 0.47 | –
55 | GCAGAGCAAUAUUACGCAUU | -3.11 ± 0.16 | -2.3 ± 0.2
56 | GCAGAGCAAUAUUACGCCGG | -2.85 ± 0.45 | -0.641 ± 0.35
57 | GCAGAGCAAUAUUACGCUGC | -3.42 ± 0.48 | -1.76 ± 0.33
58 | GCAGAGCAAUAUUACGGAAA | – | -2.15 ± 0.43
59 | GCAGAGCAAUAUUACGGAGC | -2.89 ± 0.28 | -2.84 ± 0.28
60 | GCAGAGCAAUAUUACGGCAG | -2.87 ± 0.23 | -1.18 ± 0.25
61 | GCAGAGCAAUAUUACGGCUG | -2.42 ± 0.25 | –
62 | GCAGAGCAAUAUUACGGGUG | -2.91 ± 0.22 | -1.82 ± 0.16
63 | GCAGAGCAAUAUUACGGUAA | -3.52 ± 0.27 | -2.36 ± 0.21
64 | GCAGAGCAAUAUUACGGUAG | -1.82 ± 0.27 | -0.285 ± 0.44
65 | GCAGAGCAAUAUUACGUCCG | -2.57 ± 0.14 | -2.51 ± 0.17
66 | GCAGAGCAAUAUUACGUCUU | -0.897 ± 0.12 | -2.22 ± 0.21
67 | GCAGAGCAAUAUUACGUUCA | -2.06 ± 0.13 | -0.713 ± 0.1
68 | GCAGAGCAAUAUUACGUUGC | – | -1.06 ± 0.43
69 | GCAGAGCAAUAUUACGUUUU | -3.54 ± 0.17 | -3.12 ± 0.2
70 | GCAUAGCAAUAUUACGACCA | -0.207 ± 0.11 | -0.544 ± 0.14
71 | GCAUAGCAAUAUUACGAUGU | -2.82 ± 0.13 | -2.31 ± 0.17
72 | GCAUAGCAAUAUUACGAUUA | -1.47 ± 0.18 | 0.017 ± 0.15
73 | GCAUAGCAAUAUUACGCAAU | -2.37 ± 0.11 | -1.77 ± 0.12
74 | GCAUAGCAAUAUUACGCAGU | -4.08 ± 0.17 | -1.81 ± 0.12
75 | GCAUAGCAAUAUUACGCCGA | – | -2.37 ± 0.25

Row | Sequence | self-splicing fitness (ln) (30 °C) | self-splicing fitness (ln) (37 °C)
76 | GCAUAGCAAUAUUACGCCGU | -3.07 ± 0.15 | -1.83 ± 0.14
77 | GCAUAGCAAUAUUACGCCUA | -1.83 ± 0.13 | -1.39 ± 0.12
78 | GCAUAGCAAUAUUACGCGAC | -2.79 ± 0.16 | 0.0921 ± 0.13
79 | GCAUAGCAAUAUUACGCGUG | -3.46 ± 0.2 | -2.64 ± 0.28
80 | GCAUAGCAAUAUUACGCUUG | -3.29 ± 0.21 | -2.64 ± 0.31
81 | GCAUAGCAAUAUUACGGAGA | -4.01 ± 0.37 | -3.02 ± 0.33
82 | GCAUAGCAAUAUUACGGAGU | -3.52 ± 0.14 | -1.86 ± 0.11
83 | GCAUAGCAAUAUUACGGCCC | -0.542 ± 0.32 | -0.431 ± 0.37
84 | GCAUAGCAAUAUUACGGGUC | -3.17 ± 0.14 | -2.71 ± 0.17
85 | GCAUAGCAAUAUUACGGUGU | -4.14 ± 0.23 | -2.47 ± 0.2
86 | GCAUAGCAAUAUUACGUAAA | -2.43 ± 0.074 | -1.05 ± 0.08
87 | GCAUAGCAAUAUUACGUAUU | -3.09 ± 0.16 | -2.04 ± 0.17
88 | GCAUAGCAAUAUUACGUCCU | -1.16 ± 0.12 | -0.534 ± 0.15
89 | GCAUAGCAAUAUUACGUCUA | -0.451 ± 0.14 | -0.993 ± 0.13
90 | GCAUAGCAAUAUUACGUGCG | -2.26 ± 0.1 | -1.91 ± 0.14
91 | GCAUAGCAAUAUUACGUUAU | -2.61 ± 0.16 | -3.08 ± 0.27
92 | GCCAAGCAAUAUUACGAAGC | -2.7 ± 0.12 | -2.51 ± 0.17
93 | GCCAAGCAAUAUUACGACAU | -2.357 ± 0.015 | -1.37 ± 0.033
94 | GCCAAGCAAUAUUACGACGG | -3.8 ± 0.23 | -2.55 ± 0.21
95 | GCCAAGCAAUAUUACGAUAG | -3.28 ± 0.36 | -2.43 ± 0.25
96 | GCCAAGCAAUAUUACGAUCU | -1.94 ± 0.13 | -0.903 ± 0.098
97 | GCCAAGCAAUAUUACGAUUC | -0.96 ± 0.062 | -0.482 ± 0.082

— the supplement of paper PMC7877785
